Source: patent US20260069707A1, “COMBINATION THERAPY WITH ANTIBODY-DRUG CONJUGATES AND HYALURONIDASES” (HALOZYME, INC., priority 2024, published 2026)

Tests used:
Format in all cases: in vivo, Yucatan miniature pig (Sus scrofa domestica)
[1] = Post-injection bleb volume, area, height - 3D imaging; conditions: minipig, 10 mL SC by HVAI, T0; n=3 alone, n=2 with rHuPH20
Description: 3D imaging was applied as a longitudinal methodology to measure post-injection swelling. By obtaining high definition pre- and post-injection 3D images the distances between two registered surfaces can be determined. The camera captures images using a factory calibrated bifocal imaging system to measure distance between surfaces. Surface registration was performed using a multipoint method that utilized common landmarks between the pre-injection image and the post-injection image. Using the proprietary software, the volume, area and height of the post-injection swelling was calculated for each injection (Canfield Biosciences, Inc.).
Assessment of Post-Injection Bleb Shape, Volume, Area and Height (3D Imaging). Pre- and post-injection photographs were taken using a 3D imaging system (Canfield Scientific). This technology permits point-to-point alignment of these two images through multipoint surface registration. The distance between any two points is then represented using a colorimetric surface contour map. […] The color intensity is proportional to the amount of distance measured between images with darker blue color indicating greater distance from the pre-injection image. Out of range measurements (distances greater than 6 mm) are depicted in white. Bleb measurements of volume and height include regions out of range.
These registered pre-/post-injection images were then used to calculate the bleb volume, height, circumference, length, and width for each bleb using proprietary software (Vectra H1 software; Canfield Sciences).

[2] = Post-injection bleb volume, area, height - caliper measurement
Description: (§1) The needle was inserted vertically into the marked injection site and the HVAI held in place by hand. Target needle insertion depth was ˜10 mm. Injections were timed using a stopwatch. Upon completion of the injection the needle was removed and the HVAI device discarded. Test solution back-leakage was then absorbed to a tared eye-spear for 30 seconds on the injection site and the weight of the eye spear was measured using an analytical balance. The margins of the injection site bleb were marked with a permanent marker and measured for length, width, and height using a digital caliper and recorded then photographed with the standard and 3D cameras. Caliper measurements and photographs were taken immediately post-injection. Local injection sites were qualitatively assessed and graded daily for erythema severity, swelling size appearance, and firmness, using a scoring system described in Table 4 Table 5, and Table 6, respectively.
Assessment of Local Swelling Volume and Area Using Caliper Measurement and 3D Imaging. Volume and area of post-injection swelling were measured using both caliper measurement and 3D camera image analysis. For caliper measurements a digital caliper was utilized to measure length, width and height of the bleb that formed post-injection. The length and width are defined as the edge to edge measurements of the bleb (i.e., diameter) along their longest axes. These values were manually recorded, and the volume determined using the formula for half of an ellipsoid Vol=(⅔)*π*A*B*C where A=Length/2, B=Width/2 and C=Height.
Assessment of Post-Injection Bleb Volume, Area and Height (Caliper Measurements). The local injection site swelling (bleb) was marked and measured using a digital caliper.

[3] = Qualitative assessment of local injection sites (erythema, swelling size, induration)
Description: as §1
Approximately, 24 hours post-dosing of the first injection, each animal was re-anesthetized, and injection sites assessed for erythema, induration and swelling, then photographed and returned to its cage.

[4] = Example 4 Study #1: bleb after 20 mL SC
[5] = Example 4 Study #2: bleb after 20 mL SC
[6] = Example 5: post-injection, 10 mL SC by HVAI

Sacituzumab govitecan [Trodelvy]
Bleb Area (cm^2), 3D imaging (Mean ± SEM) [1]: 30.5 ± 2.9 cm^2
Bleb Height (mm), 3D imaging (Mean ± SEM) [1]: 7.6 ± 1.2 mm
Bleb Volume (mL), 3D imaging (Mean ± SEM) [1]: 8.1 ± 0.7 mL
Height (mm) (Mean ± SEM) [2, 4]: 10.8 ± 0.6 mm
Volume (cc) (Mean ± SEM) [2, 4]: 65.5 ± 3.6 cc
Height (mm) (Mean ± SEM) [2, 5]: 10.8 ± 0.6 mm
Volume (cc) (Mean ± SEM) [2, 5]: 65.5 ± 3.6 cc
Post-injection bleb Area, caliper (Mean ± SEM) ([2]; minipig, 10 mL SC by HVAI, Trodelvy (ADC) ± rHuPH20 2000 U/mL, T0, n=3, Examples 1, 2, 5): 25.4 ± 0.5
Post-injection bleb Volume, caliper (Mean ± SEM) ([2]; minipig, 10 mL SC by HVAI, Trodelvy (ADC) ± rHuPH20 2000 U/mL, T0, n=3, Examples 1, 2, 5 (FIG. 3: mL)): 44.3 ± 4.0
Post-injection bleb Height, caliper (Mean ± SEM) ([2]; minipig, 10 mL SC by HVAI, Trodelvy (ADC) ± rHuPH20 2000 U/mL, T0, n=3, Examples 1, 2, 5 (FIG. 5: mm)): 8.7 ± 0.7
Induration (score) [3, 6]: 3.3 ± 0.3
Swelling Size (score) [3, 6]: 3.1 ± 0.3
Induration at the 24, 48 or 72 hour timepoints ([3]; minipig, 10 mL SC by HVAI): No induration was detected
Swelling at the 24, 48 or 72 hour timepoints ([3]; minipig, 10 mL SC by HVAI): No swelling was detected
Swelling Score (Mean ± SEM) ([3]; minipig, 10 mL SC by HVAI, immediately post-injection, three evaluators, scale 0-4): 3.1 ± 0.3
Induration Score (Mean ± SEM) ([3]; minipig, 10 mL SC by HVAI, immediately post-injection, two evaluators, scale 0-4): 3.3 ± 0.3
Hardness (induration) of post-injection blebs compared with blebs of the co-mix with rHuPH20 ([3]; p<0.05, 10 mL SC): significantly firmer
